Residue numbers refer to the chain shown, from its start. Names and notes keep the numbering of the source.
T1: EsCas13d, nuclease-dead (Eubacterium siraeum, UniProt B0MS50, R295A;H300A;R849A;H854A)
T1 sequence: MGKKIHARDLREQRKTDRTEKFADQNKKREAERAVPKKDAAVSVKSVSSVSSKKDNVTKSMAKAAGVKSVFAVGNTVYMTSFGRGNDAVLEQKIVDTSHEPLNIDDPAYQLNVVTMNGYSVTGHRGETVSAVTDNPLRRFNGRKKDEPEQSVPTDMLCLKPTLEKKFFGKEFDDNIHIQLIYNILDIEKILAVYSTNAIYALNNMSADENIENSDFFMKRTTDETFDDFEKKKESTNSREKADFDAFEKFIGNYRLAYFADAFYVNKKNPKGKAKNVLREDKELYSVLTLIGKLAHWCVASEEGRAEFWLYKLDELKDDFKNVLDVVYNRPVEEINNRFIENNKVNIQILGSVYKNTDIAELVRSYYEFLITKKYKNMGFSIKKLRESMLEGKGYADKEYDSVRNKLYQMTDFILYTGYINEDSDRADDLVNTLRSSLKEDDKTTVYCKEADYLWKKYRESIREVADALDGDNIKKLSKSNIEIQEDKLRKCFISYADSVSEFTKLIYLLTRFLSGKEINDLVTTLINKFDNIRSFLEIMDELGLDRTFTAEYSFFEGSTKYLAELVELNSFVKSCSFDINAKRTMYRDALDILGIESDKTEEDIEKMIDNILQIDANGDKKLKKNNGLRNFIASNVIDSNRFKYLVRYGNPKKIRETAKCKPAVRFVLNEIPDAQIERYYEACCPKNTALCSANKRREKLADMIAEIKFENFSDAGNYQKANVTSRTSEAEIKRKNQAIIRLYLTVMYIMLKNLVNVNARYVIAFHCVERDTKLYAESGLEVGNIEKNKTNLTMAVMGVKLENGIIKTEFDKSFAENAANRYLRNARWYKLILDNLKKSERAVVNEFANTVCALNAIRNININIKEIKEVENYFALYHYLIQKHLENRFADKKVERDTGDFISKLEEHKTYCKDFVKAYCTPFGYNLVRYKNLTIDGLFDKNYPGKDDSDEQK

B1: target 2 MT 5'PFS CGC 3'PFS UGC (mixed)
RNA 1: CACCCGUGCAAAAUUGCAGGGGUCUAAAACCUUCUCCAAAUUGUUUCAUCCU
RNA 2: GGGAAUGGAUCCACAUCUACGAAUUCCGCAGGAUGAAACAAUUUGGAGAAGUGCAGAUCGGAAGAGCACACGU
B2: target 2 MT 5'PFS UUA 3'PFS GCC (mixed)
RNA 1: B1 RNA 1
RNA 2: B1 RNA 2 with C27U, G28U, C29A, U52G, G53C
B3: target 2 MT 5'PFS UCA 3'PFS UUA (mixed)
RNA 1: B1 RNA 1
RNA 2: B1 RNA 2 with C27U, G28C, C29A, G53U, C54A
B4: target 2 MT 5'PFS UCU 3'PFS AAG (mixed)
RNA 1: B1 RNA 1
RNA 2: B1 RNA 2 with C27U, G28C, C29U, U52A, G53A, C54G
B5: target 2 MT 5'PFS UGU 3'PFS UCU (mixed)
RNA 1: B1 RNA 1
RNA 2: B1 RNA 2 with C27U, C29U, G53C, C54U
B6: target 2 MT 5'PFS CGG 3'PFS CGA (mixed)
RNA 1: B1 RNA 1
RNA 2: B1 RNA 2 with C29G, U52C, C54A
B7: target 2 MT 5'PFS AAU 3'PFS UCG (mixed)
RNA 1: B1 RNA 1
RNA 2: B1 RNA 2 with C27A, G28A, C29U, G53C, C54G
B8: target 2 MT 5'PFS CUU 3'PFS CUG (mixed)
RNA 1: B1 RNA 1
RNA 2: B1 RNA 2 with G28U, C29U, U52C, G53U, C54G
B9: target 2 MT 5'PFS UUA 3'PFS GCA (mixed)
RNA 1: B1 RNA 1
RNA 2: B1 RNA 2 with C27U, G28U, C29A, U52G, G53C, C54A
B10: target 2 MT 5'PFS UUU 3'PFS CGA (mixed)
RNA 1: B1 RNA 1
RNA 2: B1 RNA 2 with C27U, G28U, C29U, U52C, C54A
B11: target 2 MT 5'PFS AAC 3'PFS UUA (mixed)
RNA 1: B1 RNA 1
RNA 2: B1 RNA 2 with C27A, G28A, G53U, C54A
B12: target 2 MT 5'PFS UCU 3'PFS AAA (mixed)
RNA 1: B1 RNA 1
RNA 2: B1 RNA 2 with C27U, G28C, C29U, U52A, G53A, C54A
B13: target 2 MT 5'PFS GCG 3'PFS CGG (mixed)
RNA 1: B1 RNA 1
RNA 2: B1 RNA 2 with C27G, G28C, C29G, U52C, C54G
B14: target 2 MT 5'PFS UCU 3'PFS AAU (mixed)
RNA 1: B1 RNA 1
RNA 2: B1 RNA 2 with C27U, G28C, C29U, U52A, G53A, C54U
B15: target 2 MT 5'PFS CAU 3'PFS CGG (mixed)
RNA 1: B1 RNA 1
RNA 2: B1 RNA 2 with G28A, C29U, U52C, C54G
B16: target 2 MT 5'PFS UAG 3'PFS ACU (mixed)
RNA 1: B1 RNA 1
RNA 2: B1 RNA 2 with C27U, G28A, C29G, U52A, G53C, C54U
B17: target 2 MT 5'PFS GGC 3'PFS UCU (mixed)
RNA 1: B1 RNA 1
RNA 2: B1 RNA 2 with C27G, G53C, C54U
B18: target 2 MT 5'PFS GGC 3'PFS UCC (mixed)
RNA 1: B1 RNA 1
RNA 2: B1 RNA 2 with C27G, G53C
B19: target 2 MT 5'PFS UCU 3'PFS AAC (mixed)
RNA 1: B1 RNA 1
RNA 2: B1 RNA 2 with C27U, G28C, C29U, U52A, G53A
B20: target 2 MT 5'PFS CUU 3'PFS CUC (mixed)
RNA 1: B1 RNA 1
RNA 2: B1 RNA 2 with G28U, C29U, U52C, G53U
B21: target 2 MT 5'PFS CAU 3'PFS CGA (mixed)
RNA 1: B1 RNA 1
RNA 2: B1 RNA 2 with G28A, C29U, U52C, C54A
B22: target 2 MT 5'PFS CUU 3'PFS CUU (mixed)
RNA 1: B1 RNA 1
RNA 2: B1 RNA 2 with G28U, C29U, U52C, G53U, C54U
B23: target 2 MT 5'PFS UCA 3'PFS UUC (mixed)
RNA 1: B1 RNA 1
RNA 2: B1 RNA 2 with C27U, G28C, C29A, G53U
B24: target 2 MT 5'PFS GGC 3'PFS UCG (mixed)
RNA 1: B1 RNA 1
RNA 2: B1 RNA 2 with C27G, G53C, C54G
B25: target 2 MT 5'PFS GGC 3'PFS UCA (mixed)
RNA 1: B1 RNA 1
RNA 2: B1 RNA 2 with C27G, G53C, C54A
B26: target 2 MT 5'PFS UGU 3'PFS UCG (mixed)
RNA 1: B1 RNA 1
RNA 2: B1 RNA 2 with C27U, C29U, G53C, C54G
B27: target 2 MT 5'PFS CUU 3'PFS CUA (mixed)
RNA 1: B1 RNA 1
RNA 2: B1 RNA 2 with G28U, C29U, U52C, G53U, C54A
B28: target 2 MT 5'PFS AUU 3'PFS CAC (mixed)
RNA 1: B1 RNA 1
RNA 2: B1 RNA 2 with C27A, G28U, C29U, U52C, G53A
B29: target 2 MT 5'PFS UUU 3'PFS CGC (mixed)
RNA 1: B1 RNA 1
RNA 2: B1 RNA 2 with C27U, G28U, C29U, U52C
B30: target 2 MT 5'PFS CGG 3'PFS CGC (mixed)
RNA 1: B1 RNA 1
RNA 2: B1 RNA 2 with C29G, U52C
B31: target 1 insU 3' of 21,insG 3' of 14 (mixed)
RNA 1: CACCCGUGCAAAAAUGCAGGGGUCUAAAACUGAGCGGAUAACCUCUCUAUGG
RNA 2: GGGAAUGGAUCCACAUCUACGAAUUCGUACCUAUAGAGAGGGUUAUCCGCUCACCGAGAUCGGAAGAGCACACGU
B32: target 1 insA 3' of 8,insG 3' of 6 (mixed)
RNA 1: B31 RNA 1
RNA 2: GGGAAUGGAUCCACAUCUACGAAUUCGUACCAUAGAGAGGUUAUACCGGCUCACCGAGAUCGGAAGAGCACACGU
B33: target 1 G15A,C22A (mixed)
RNA 1: B31 RNA 1
RNA 2: GGGAAUGGAUCCACAUCUACGAAUUCGUAACAUAGAAAGGUUAUCCGCUCACCGAGAUCGGAAGAGCACACGU

Biological target: T1, EsCas13d, nuclease-dead
Assay: crRNA (strand 1, pre-loaded); Mg2+; 40 mM Tris-HCl pH 7.5, 150 mM NaCl, 6 mM MgCl2, 1 mM DTT, 0.1% Tween-20, 0.2 mg/ml BSA; 25 C; 10 min per concentration, then washed
Details: tags: His6-TwinStrep-SUMO cleaved; N-terminal SNAP kept (SNAP-Surface 488); label: 3' end held by stalled T7 RNA polymerase

Binder | Kd [nM]
B1 | 6 ± 0.9
B2 | 37 ± 12
B3 | 7.2 ± 1.1
B4 | 20 ± 6
B5 | 17.7 ± 2.2
B6 | 3 ± 0.3
B7 | 6.4 ± 1
B8 | 4.2 ± 0.8
B9 | 14.7 ± 2.1
B10 | 8 ± 0.9
B11 | 7.4 ± 1.7
B12 | 20 ± 8
B13 | 11.9 ± 1.2
B14 | 26 ± 10
B15 | 2.83 ± 0.35
B16 | 4.5 ± 0.5
B17 | 18.9 ± 1.7

Binder | Kd [nM]
B18 | 36 ± 9
B19 | 9.5 ± 1.7
B20 | 5.6 ± 0.5
B21 | 3.8 ± 0.7
B22 | 4.7 ± 0.5
B23 | 10.3 ± 2.3
B24 | 19.8 ± 3.1
B25 | 20.6 ± 3.1
B26 | 15.8 ± 2.5
B27 | 10.8 ± 3.5
B28 | 7.2 ± 0.7
B29 | 6.4 ± 0.5
B30 | 3.81 ± 0.28
B31 | 39 ± 4
B32 | 17.5 ± 0.9
B33 | 20.6 ± 2.7
